# Experimental data published in the RNAGym collection of RNA variant scans (doi:10.7554/elife.80360).
# B1: Hairpin Ribozyme (parent)
# chain: GUCCUCUUUCACGUGCGCGUGAAAGAGAGAAGUGAACCAGAGAAACACACGUUGUGGUAUAUUACCUGGUA
# Variants of: B1
# Test: self-cleavage, relative activity (ratio to wild type); higher = more cleavage; co-transcriptional
row,Variant,self-cleavage
1,A47G U58G,0.119
2,G51A C66A,0.344
3,A49G A64U,0.0802
4,A49U U60A,0.281
5,A47C G54U,0.241
6,A47C G54C,0.228
7,C48G A71G,0.142
8,C48U A49U,0.208
9,C48U A49G,0.153
10,C48G U58A,0.105
11,C46G U55A,0.142
12,A49C G57A,0.193
13,C48U G56C,0.104
14,A49C U62G,0.225
15,C50U U52C,0.343
16,C50U U52A,0.456
17,C46G G69A,0.179
18,C46G G69C,0.123
19,A47U U55G,0.128
20,A47U U55C,0.203
21,C50U G69C,0.142
22,C50U G69A,0.112
23,C48A U53G,0.191
24,C48A U53A,0.228

row,Variant,self-cleavage
1,C48U U70C,0.0914
2,A49C A61C,0.124
3,C48U A71G,0.242
4,C48A G68U,0.16
5,A47G U60C,0.135
6,A47G U60A,0.139
7,A47C U62A,0.195
8,C50U G68U,0.16
9,C48A U67C,0.137
10,C48A U67A,0.11
11,C50G C66U,0.146
12,C48A U60G,0.149
13,A47G G57C,0.159
14,A47C G57A,0.225
15,C50A A64G,0.211
16,C48G U63A,0.181
17,A47U A59C,0.164
18,C48G G56U,0.193
19,C46U A71G,0.302
20,C46U A71C,0.151
21,C48U U53A,0.0973
22,C48U U53G,0.112
23,A49G G69U,0.148
24,C50A U58A,0.183

row,Variant,self-cleavage
1,C50A U58C,0.144
2,C50G G68U,0.22
3,C48G A64U,0.149
4,C48G A64G,0.155
5,C48U U58G,0.152
6,C48U U58A,0.214
7,A49U C50U,0.139
8,C50G G57U,0.307
9,C46U U52A,0.179
10,A49U G54A,0.477
11,A49G U63C,0.253
12,A49G U63A,0.0688
13,C46G U70G,0.149
14,C46G U70A,0.161
15,C48U A61G,0.177
16,C48G G68A,0.226
17,C48G G68U,0.163
18,C50G U58G,0.147
19,C48G U67G,0.113
20,A49G U62C,0.154
21,A49G G54U,0.541
22,A49G G54C,0.277
23,A49G G54A,0.64
24,A47G A59C,0.134

row,Variant,self-cleavage
1,A47G A59U,0.186
2,C50G G51C,0.327
3,A49C A71C,0.291
4,C48A C50G,0.0517
5,G51A G54A,0.62
6,G51A G54U,0.649
7,C50A A61U,0.281
8,C50A G54C,0.375
9,C50A G54A,0.742
10,C46U C65U,0.216
11,G51A,1.03
12,A47G G54C,0.266
13,A47G G54A,0.177
14,C48A U58C,0.154
15,A47C U52A,0.407
16,C46U A49C,0.201
17,C46U U63A,0.0217
18,C46U U63G,0.221
19,C46U G54A,0.237
20,A49G G68C,0.307
21,C50G U52G,0.312
22,G51A A59C,0.181
23,A49U G57C,0.0724
24,C46U C48U,0.139

row,Variant,self-cleavage
1,C46U C48A,0.203
2,C46U G51U,0.256
3,C46U G51C,0.176
4,C48G U53G,0.128
5,G51A G56A,0.197
6,C50A A59U,0.231
7,C46U A59C,0.32
8,A47C G51A,0.303
9,A47C G51U,0.392
10,A49U U70C,0.124
11,A49U G68A,0.172
12,C46G U58C,0.308
13,C46G U58G,0.112
14,C46G U58A,0.256
15,A47C U58G,0.172
16,A47G U53G,0.338
17,A47U U53C,0.0703
18,A47U U53A,0.133
19,C50U G54U,0.905
20,A47U G68C,0.26
21,A47U G68A,0.148
22,A49C C50A,0.139
23,C48A G56U,0.304
24,C48A G56A,0.135

row,Variant,self-cleavage
1,A49G G57U,0.22
2,A47C U70A,0.264
3,G51A U52C,0.738
4,G51A U52G,0.981
5,C50A U55C,0.582
6,A49U U55C,0.349
7,A49G G51U,0.532
8,A47U A64C,0.0694
9,C48G U55G,0.143
10,C48G U55C,0.106
11,A49C U60G,0.166
12,C48U G68U,0.097
13,A47G U55C,0.207
14,C46U U55C,0.0817
15,C46U U55A,0.115
16,C46U U55G,0.125
17,G51A G69C,0.467
18,A47U U70G,0.141
19,A47U U70A,0.276
20,A47U G69C,0.227
21,A47C C48G,0.0552
22,A47C C48U,0.0858
23,G51A A64U,0.22
24,A49G G56C,0.155

row,Variant,self-cleavage
1,A47U G51A,0.157
2,A47G C65U,0.156
3,C46U G69C,0.138
4,A49U U53C,0.124
5,A49U U53G,0.167
6,A49U U53A,0.139
7,A47C A61G,0.17
8,A49C U67A,0.13
9,A49C U67G,0.109
10,A49C U67C,0.0984
11,A47G G68A,0.181
12,C50G C65U,0.0289
13,C48G C65A,0.22
14,C48G C65U,0.166
15,C48G C65G,0.149
16,A47G A71G,0.142
17,A49U U67C,0.11
18,A49U U67A,0.0529
19,C50U U67A,0.2
20,C50U U67G,0.181
21,C48A C66A,0.189
22,A49U G56U,0.147
23,A49U G56C,0.102
24,A47C U63C,0.0902

row,Variant,self-cleavage
1,A47C U63A,0.127
2,A47C U63G,0.104
3,A47G C66A,0.138
4,A47U C65U,0.0249
5,C50A C65A,0.142
6,C50A C65G,0.0746
7,C46G U63C,0.103
8,C46G U63G,0.0876
9,A49C U53G,0.0631
10,A49C U53A,0.0758
11,A49C U53C,0.27
12,A47G U62G,0.0586
13,A47G U62C,0.0615
14,C50G U70C,0.498
15,C50U C66G,0.166
16,C50U C66A,0.165
17,A47G A61U,0.195
18,A47G A61C,0.132
19,C50A G57C,0.133
20,C48G A59U,0.0386
21,A49G A59G,0.145
22,A49G A59C,0.194
23,C50G A59C,0.221
24,C50G A59G,0.211

row,Variant,self-cleavage
1,C50U U62A,0.185
2,C50U C65G,0.161
3,C50A U62G,0.177
4,C50A U62C,0.147
5,C50A U62A,0.0965
6,A47G U70A,0.204
7,C48A G57C,0.148
8,A47U A61U,0.211
9,C46U U53C,0.235
10,C48U U62G,0.108
11,C50U U53A,0.335
12,A47U C66G,0.116
13,C48A U55C,0.144
14,C48G C66A,0.131
15,C50G G54U,0.441
16,C50G G54A,0.487
17,A47U A49C,0.144
18,A47U A49U,0.149
19,C48A G51C,0.152
20,C48A G51A,0.106
21,C48A G51U,0.141
22,C50U U58G,0.262
23,C50G G69A,0.152
24,C50G G69C,0.227

row,Variant,self-cleavage
1,C50U U55C,0.615
2,C50U U55A,0.32
3,C46G U60C,0.0722
4,A47G U67G,0.0884
5,A49C C66A,0.28
6,C48G U62G,0.107
7,C48G U62C,0.139
8,C48A A64C,0.0601
9,C46U A47G,0.0613
10,C46U A47C,0.149
11,C46U A47U,0.163
12,A47G U63C,0.248
13,A47G U52G,0.259
14,A47C A59G,0.0267
15,C46G G68C,0.13
16,C48A U62A,0.14
17,C50U A61U,0.13
18,C50U A61C,0.181
19,A47C U55C,0.233
20,C50G A71C,0.69
21,C46U A64G,0.021
22,A49U C65U,0.0248
23,C48A G54C,0.0747
24,C48A G54U,0.176

row,Variant,self-cleavage
1,C46G U53G,0.186
2,A49U U52C,0.202
3,A49U U52G,0.364
4,C50G U63G,0.0983
5,G51A C65G,0.287
6,G51A C65A,1.17
7,C48A U63C,0.198
8,A49C G54U,0.216
9,A49C A64G,0.0856
10,A49C A64C,0.168
11,A49C G69U,0.136
12,A49C G69A,0.139
13,C48U U67G,0.0927
14,C48G G51C,0.0824
15,C48G G51U,0.17
16,A47C A64U,0.218
17,A49G U53C,0.363
18,A49G U53G,0.44
19,A47U U58A,0.106
20,A47U G57A,0.417
21,C48U A59U,0.0991
22,A47C U67C,0.148
23,A47C U67G,0.123
24,C48U G51U,0.165

row,Variant,self-cleavage
1,C48G U60C,0.0854
2,A49U U63G,0.111
3,A49U U63A,0.183
4,C50U G51U,0.424
5,C50U G51A,0.322
6,A47U U62C,0.264
7,A47U U52A,0.148
8,A47U U52G,0.256
9,C48A C65A,0.131
10,C50G U55C,0.16
11,C48U U52C,0.194
12,A47C C50G,0.0249
13,C50A U70G,0.252
14,C50A U70A,0.303
15,A47G C48G,0.121
16,C50U A71G,0.457
17,C50G U67C,0.0994
18,C46U U67G,0.171
19,A49G U70C,0.262
20,A49G U70G,0.453
21,A49G U70A,0.377
22,A47U C50A,0.113
23,A47U C50G,0.28
24,C48A A71U,0.129

row,Variant,self-cleavage
1,C48A A71C,0.343
2,C48A A71G,0.19
3,A47U U67A,0.103
4,A49U U62C,0.196
5,C48A,0.157
6,C48U,0.158
7,C48G,0.153
8,G51A A71G,0.934
9,G51A A71U,0.718
10,C50U G57U,0.183
11,C50U G57C,0.16
12,C48U C66A,0.176
13,C50A G69U,0.173
14,A47C C65A,0.282
15,A49C G56C,0.12
16,C50U A59G,0.204
17,C50U A59C,0.166
18,C48G G54U,0.211
19,C46U C66A,0.113
20,C46U C66G,0.146
21,A47G G56A,0.103
22,A47G G56C,0.132
23,A47C G56C,0.161
24,C48G G57U,0.101

row,Variant,self-cleavage
1,C48G G57A,0.151
2,C50A U53A,0.384
3,A49U U58G,0.15
4,A49U U58A,0.187
5,A49U U58C,0.28
6,C46U U58A,0.0874
7,C50G A64C,0.201
8,C50U A64U,0.0365
9,C50U A64C,0.159
10,C50G U62C,0.158
11,C50G U62G,0.151
12,C50A U60C,0.419
13,C46U C50A,0.0957
14,C46U C50U,0.227
15,C50U G56U,0.121
16,C48A A61G,0.151
17,A47C U53A,0.28
18,A49G C65A,0.42
19,C50U U63A,0.172
20,C50U U63C,0.217
21,C50U U63G,0.198
22,A49G U58A,0.217
